Measured values taken from patent US20250043302A1, “MUTATED HYDROXYPHENYLPYRUVATE DIOXYGENASE POLYPEPTIDE, AND CODING GENE AND USE THEREOF” (BEIJING DABEINONG BIOTECHNOLOGY CO., LTD., priority 2021, published 2025).

What was measured:
Assay type in all cases: in vivo
[1] = tested on: Arabidopsis thaliana T1 plants; assay: Mesotrione tolerance of transgenic Arabidopsis thaliana T1 plants (spray, bleached leaf area grade, damage score); parameters: Scores: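 damage score 0-100 computed as Σ(N×S)/(T×M)×100 over grades 0-3 with higher meaning more damage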; details: for Grade 0 (classification and statistics of the grade of pesticide damage; number of plants) / Grade 1 (classification and statistics of the grade of pesticide damage; number of plants) / Grade 2 (classification and statistics of the grade of pesticide damage; number of plants) / Grade 3 (classification and statistics of the grade of pesticide damage; number of plants): 16 plants; for Classification and statistics of the grade of pesticide damage Grade 0 / Classification and statistics of the grade of pesticide damage Grade 1 / Classification and statistics of the grade of pesticide damage Grade 2 / Classification and statistics of the grade of pesticide damage Grade 3: number of plants in grade
Procedure, shortened: (§1)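 Damage graded 0–3 from the proportion of bleached leaf area 7 days after spraying. Plants were glufosinate-selected T1 lines, 18 days after sowing, plus vector and wild-type controls. Rates: mesotrione 52.5–420, isoxaflutole 35–280, topramezone 25–200 g ai/ha, with water (0×).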

[2] = tested on: Arabidopsis thaliana T1 plants; assay: Topramezone tolerance of transgenic Arabidopsis thaliana T1 plants (spray, bleached leaf area grade, damage score); details: for Classification and statistics of the grade of pesticide damage Grade 0: number of plants at grade 0; for Classification and statistics of the grade of pesticide damage Grade 1: number of plants at grade 1; for Classification and statistics of the grade of pesticide damage Grade 2: number of plants at grade 2; for Classification and statistics of the grade of pesticide damage Grade 3: number of plants at grade 3; for Classification and statistics of the grade of pesticide damage: Grade 0 / Classification and statistics of the grade of pesticide damage: Grade 1 / Classification and statistics of the grade of pesticide damage: Grade 2 / Classification and statistics of the grade of pesticide damage: Grade 3: number of plants
Procedure, shortened: as §1

[3] = tested on: Arabidopsis thaliana T1 plants; assay: Isoxaflutole tolerance of transgenic Arabidopsis thaliana T1 plants (spray, bleached leaf area grade, damage score); parameters: Scores (pesticide damage): scale not given here; details: for Classification and statistics of the grade of pesticide damage: Grade 0 (number of plants) / Classification and statistics of the grade of pesticide damage: Grade 1 (number of plants) / Classification and statistics of the grade of pesticide damage: Grade 2 (number of plants) / Classification and statistics of the grade of pesticide damage: Grade 3 (number of plants): 16 plants; for Classification and statistics of the grade of pesticide damage Grade 0 / Classification and statistics of the grade of pesticide damage Grade 1 / Classification and statistics of the grade of pesticide damage Grade 2 / Classification and statistics of the grade of pesticide damage Grade 3: number of plants in grade
Procedure, shortened: as §1

[4] = mesotrione 52.5 g ai/ha, Arabidopsis thaliana T1 plants
[5] = mesotrione 105 g ai/ha, Arabidopsis thaliana T1 plants
[6] = Table 13, topramezone 25 g ai/ha (1×)
[7] = Table 13, topramezone 100 g ai/ha (4×)
[8] = topramezone 25 g ai/ha (1×), 7 DAT, Table 4
[9] = topramezone 100 g ai/ha (4×), 7 DAT, Table 4
[10] = isoxaflutole 35 g ai/ha (0.5x field concentration), spray, Arabidopsis thaliana T1 plants
[11] = isoxaflutole 70 g ai/ha (1x field concentration), spray, Arabidopsis thaliana T1 plants

B1: AtHPPD-02: nucleotide sequence encoding wild-type Arabidopsis thaliana HPPD; vector DBN11730 (nucleic acid)
DNA: ATGGGACATCAGAATGCTGCTGTATCAGAAAATCAAAATCATGATGATGGAGCCGCCTCCTCACCAGGGTTTAAGTTGGTTGGGTTCTCCAAGTTTGTACGGAAGAACCCAAAATCCGACAAGTTCAAGGTTAAACGCTTCCACCACATTGAATTCTGGTGCGGCGACGCCACCAATGTTGCTCGGCGTTTTTCATGGGGTTTAGGCATGAGATTCTCAGCAAAGAGTGACCTGAGCACCGGCAACATGGTTCATGCTAGCTATCTCTTAACATCTGGAGATTTGAGGTTTCTTTTCACGGCGCCGTACTCACCATCACTCTCCGCCGGCGAGATCAAACCCACCACGACTGCAAGCATACCTTCATTTGATCATGGTAGTTGCAGATCCTTCTTCTCGTCGCACGGCCTAGGGGTGCGCGCGGTCGCCATCGAAGTTGAAGATGCAGAATCAGCGTTTAGTATCAGCGTGGCAAATGGAGCTATTCCTTCCTCCCCTCCAATTGTCCTCAATGAGGCTGTAACTATTGCCGAGGTGAAGTTGTATGGAGATGTTGTGCTGAGATATGTTTCTTACAAGGCAGAGGACACTGAGAAATCTGAATTTTTGCCTGGTTTTGAAAGGGTCGAGGATGCTTCAAGTTTTCCTCTTGATTACGGCATACGACGGTTGGATCACGCGGTTGGAAATGTACCAGAACTTGGGCCGGCGCTCACTTATGTGGCTGGTTTCACTGGATTCCATCAATTTGCTGAGTTCACAGCTGATGATGTTGGGACTGCTGAAAGTGGGTTGAACTCTGCAGTCCTCGCCTCTAATGATGAAATGGTGCTCCTCCCGATCAACGAGCCTGTGCATGGCACCAAAAGGAAATCACAAATACAGACATATCTTGAGCACAATGAAGGTGCAGGGCTTCAACATCTTGCACTGATGTCTGAAGACATTTTCCGTACGCTGAGAGAGATGAGGAAGAGAAGTAGTATTGGTGGATTTGACTTCATGCCTTCTCCCCCACCAACTTACTACCAGAACTTGAAGAAGAGGGTTGGTGATGTGCTATCTGATGACCAGATCAAGGAGTGTGAAGAATTGGGCATTCTTGTTGATCGGGACGACCAAGGAACATTACTGCAGATATTTACAAAACCACTTGGTGACCGCCCCACTATTTTTATTGAGATCATACAAAGAGTCGGCTGCATGATGAAGGATGAGGAAGGAAAAGCATATCAATCTGGTGGTTGTGGCGGCTTTGGGAAAGGAAACTTCTCTGAGCTGTTCAAATCCATCGAGGAGTATGAGAAGACCTTGGAGGCCAAGCAGCTCGTGGGTTGA
modifications: AtHPPD-02 Nucleotide Sequence
notes: vector DBN11730
Resistance evaluation ([1]; mesotrione 52.5 g ai/ha): Non-resistant
Scores ([1]; mesotrione 52.5 g ai/ha): 100
Resistance evaluation [1, 4]: Non-resistant
Scores [1, 4]: 100
Grade 0 (classification and statistics of the grade of pesticide damage; number of plants) [1, 4]: 0
Grade 1 (classification and statistics of the grade of pesticide damage; number of plants) [1, 4]: 0
Grade 2 (classification and statistics of the grade of pesticide damage; number of plants) [1, 4]: 0
Grade 3 (classification and statistics of the grade of pesticide damage; number of plants) [1, 4]: 16
Classification and statistics of the grade of pesticide damage Grade 0 ([1]; mesotrione 52.5 g ai/ha): 0
Classification and statistics of the grade of pesticide damage Grade 1 ([1]; mesotrione 52.5 g ai/ha): 0
Classification and statistics of the grade of pesticide damage Grade 2 ([1]; mesotrione 52.5 g ai/ha): 0
Classification and statistics of the grade of pesticide damage Grade 3 ([1]; mesotrione 52.5 g ai/ha): 16
Resistance evaluation ([1]; mesotrione 105 g ai/ha): Non-resistant
Scores ([1]; mesotrione 105 g ai/ha): 100
Resistance evaluation [1, 5]: Non-resistant
Scores [1, 5]: 100
Grade 0 (classification and statistics of the grade of pesticide damage; number of plants) [1, 5]: 0
Grade 1 (classification and statistics of the grade of pesticide damage; number of plants) [1, 5]: 0
Grade 2 (classification and statistics of the grade of pesticide damage; number of plants) [1, 5]: 0
Grade 3 (classification and statistics of the grade of pesticide damage; number of plants) [1, 5]: 16
Classification and statistics of the grade of pesticide damage Grade 0 ([1]; mesotrione 105 g ai/ha): 0
Classification and statistics of the grade of pesticide damage Grade 1 ([1]; mesotrione 105 g ai/ha): 0
Classification and statistics of the grade of pesticide damage Grade 2 ([1]; mesotrione 105 g ai/ha): 0
Classification and statistics of the grade of pesticide damage Grade 3 ([1]; mesotrione 105 g ai/ha): 16
Resistance evaluation [2, 6]: Non-resistant
Classification and statistics of the grade of pesticide damage Grade 0 [2, 6]: 0
Classification and statistics of the grade of pesticide damage Grade 1 [2, 6]: 0
Classification and statistics of the grade of pesticide damage Grade 2 [2, 6]: 0
Classification and statistics of the grade of pesticide damage Grade 3 [2, 6]: 16
Scores ([2]; Table 13, topramezone 25 g ai/ha (1×), pesticide damage score): 100
Resistance evaluation [2, 7]: Non-resistant
Classification and statistics of the grade of pesticide damage Grade 0 [2, 7]: 0
Classification and statistics of the grade of pesticide damage Grade 1 [2, 7]: 0
Classification and statistics of the grade of pesticide damage Grade 2 [2, 7]: 0
Classification and statistics of the grade of pesticide damage Grade 3 [2, 7]: 16
Scores ([2]; Table 13, topramezone 100 g ai/ha (4×), pesticide damage score): 100
Classification and statistics of the grade of pesticide damage: Grade 0 [2, 8]: 0
Classification and statistics of the grade of pesticide damage: Grade 1 [2, 8]: 0
Classification and statistics of the grade of pesticide damage: Grade 2 [2, 8]: 0
Classification and statistics of the grade of pesticide damage: Grade 3 [2, 8]: 16
Classification and statistics of the grade of pesticide damage: Grade 0 [2, 9]: 0
Classification and statistics of the grade of pesticide damage: Grade 1 [2, 9]: 0
Classification and statistics of the grade of pesticide damage: Grade 2 [2, 9]: 0
Classification and statistics of the grade of pesticide damage: Grade 3 [2, 9]: 16
Scores ([2]; pesticide damage score 0-100, topramezone 25 g ai/ha (1×), 7 DAT, Table 4): 100
Scores ([2]; pesticide damage score 0-100, topramezone 100 g ai/ha (4×), 7 DAT, Table 4): 100
Resistance evaluation [2, 8]: non-resistant (non-resistant plants (scores 68-100))
Resistance evaluation [2, 9]: non-resistant (non-resistant plants (scores 68-100))
Resistance evaluation ([3]; isoxaflutole 35 g ai/ha): Non-resistant
Scores ([3]; isoxaflutole 35 g ai/ha): 100
Resistance evaluation [3, 10]: Non-resistant
Scores (pesticide damage) [3, 10]: 100
Classification and statistics of the grade of pesticide damage: Grade 0 (number of plants) [3, 10]: 0
Classification and statistics of the grade of pesticide damage: Grade 1 (number of plants) [3, 10]: 0
Classification and statistics of the grade of pesticide damage: Grade 2 (number of plants) [3, 10]: 0
Classification and statistics of the grade of pesticide damage: Grade 3 (number of plants) [3, 10]: 16
Classification and statistics of the grade of pesticide damage Grade 0 ([3]; isoxaflutole 35 g ai/ha): 0
Classification and statistics of the grade of pesticide damage Grade 1 ([3]; isoxaflutole 35 g ai/ha): 0
Classification and statistics of the grade of pesticide damage Grade 2 ([3]; isoxaflutole 35 g ai/ha): 0
Classification and statistics of the grade of pesticide damage Grade 3 ([3]; isoxaflutole 35 g ai/ha): 16
Resistance evaluation ([3]; isoxaflutole 70 g ai/ha): Non-resistant
Scores ([3]; isoxaflutole 70 g ai/ha): 100
Resistance evaluation [3, 11]: Non-resistant
Scores (pesticide damage) [3, 11]: 100
Classification and statistics of the grade of pesticide damage: Grade 0 (number of plants) [3, 11]: 0
Classification and statistics of the grade of pesticide damage: Grade 1 (number of plants) [3, 11]: 0
Classification and statistics of the grade of pesticide damage: Grade 2 (number of plants) [3, 11]: 0
Classification and statistics of the grade of pesticide damage: Grade 3 (number of plants) [3, 11]: 16
Classification and statistics of the grade of pesticide damage Grade 0 ([3]; isoxaflutole 70 g ai/ha): 0
Classification and statistics of the grade of pesticide damage Grade 1 ([3]; isoxaflutole 70 g ai/ha): 0
Classification and statistics of the grade of pesticide damage Grade 2 ([3]; isoxaflutole 70 g ai/ha): 0
Classification and statistics of the grade of pesticide damage Grade 3 ([3]; isoxaflutole 70 g ai/ha): 16
